Laboratory results as given in patent publication US20240000957A1 (published 2024).
*1 amine or outer side, *2 acyl side, *3 side chain or, on linkers, in order; H or OH if unused. Bridges are numbered along the chain shown (N, C = ends). Where no end group is shown, it is not given here. [ ]: non-standard residue; d: D form. TATA = O=C(CC[*:1])N1CN(C(=O)CC[*:2])CN(C(=O)CC[*:3])C1; 2Nal = N[C@@H](Cc1ccc2ccccc2c1)C(=O)O; βAla = NCCC(=O)O; Sar = CNCC(=O)O

Experiments:
[1] = molecular target: T1, Human EphA2 (Ecto), C-terminal polyHis (Human, UniProt P29317 24-537); test: FP competition vs Reference Compound C
T1 construct: extracellular domain; R&D systems 3035-A2 or in-house
T1 sequence (P29317 24-537): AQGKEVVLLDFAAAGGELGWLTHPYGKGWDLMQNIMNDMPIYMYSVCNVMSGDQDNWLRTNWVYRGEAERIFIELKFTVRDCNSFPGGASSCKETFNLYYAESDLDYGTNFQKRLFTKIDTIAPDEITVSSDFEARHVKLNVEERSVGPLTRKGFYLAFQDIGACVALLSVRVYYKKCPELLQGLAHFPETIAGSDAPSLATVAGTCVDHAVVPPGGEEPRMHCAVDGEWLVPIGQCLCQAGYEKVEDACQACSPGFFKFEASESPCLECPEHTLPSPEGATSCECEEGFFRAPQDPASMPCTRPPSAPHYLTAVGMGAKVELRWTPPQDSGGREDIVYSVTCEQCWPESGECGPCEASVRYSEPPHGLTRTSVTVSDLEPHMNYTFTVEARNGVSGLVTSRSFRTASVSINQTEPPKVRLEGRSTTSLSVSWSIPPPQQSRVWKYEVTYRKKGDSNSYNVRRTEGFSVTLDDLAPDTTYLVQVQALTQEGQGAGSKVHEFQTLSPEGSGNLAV

Mouse EphA2 (Ecto) [2] = molecular target: T2, Mouse EphA2 (Ecto) (Mouse, UniProt Q03145 26-538); test: FP competition vs Reference Compound C
T2 construct: extracellular domain; Fluorescence polarisation assays; not shown: Fc fusion (R&D Systems 639-A2) or C-terminal polyHis (Sino Biological 50586-M08H)
T2 sequence (Q03145 26-538): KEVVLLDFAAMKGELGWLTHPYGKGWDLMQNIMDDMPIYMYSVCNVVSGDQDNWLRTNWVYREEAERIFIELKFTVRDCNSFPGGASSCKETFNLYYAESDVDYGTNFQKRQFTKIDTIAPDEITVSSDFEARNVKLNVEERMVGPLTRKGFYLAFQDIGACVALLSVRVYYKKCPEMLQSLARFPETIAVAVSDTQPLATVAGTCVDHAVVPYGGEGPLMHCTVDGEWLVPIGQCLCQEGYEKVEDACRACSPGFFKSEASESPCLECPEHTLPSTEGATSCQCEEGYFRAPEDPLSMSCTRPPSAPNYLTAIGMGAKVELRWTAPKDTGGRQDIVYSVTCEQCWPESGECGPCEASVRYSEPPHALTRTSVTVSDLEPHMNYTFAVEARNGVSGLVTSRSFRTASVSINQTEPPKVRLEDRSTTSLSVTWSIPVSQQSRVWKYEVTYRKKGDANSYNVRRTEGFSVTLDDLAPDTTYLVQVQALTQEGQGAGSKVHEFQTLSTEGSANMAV

Human EphA2 = molecular target: T3, Human EphA2 (Human, UniProt P29317 24-537, limits assumed, biotinylated, 0.95 mol biotin/monomer); test: SPR, biotinylated EphA2 on streptavidin chip
T3 construct: also called Eph receptor tyrosine kinase A2
T3 sequence (P29317 24-537 limits assumed): as the sequence (P29317 24-537) above

[3] = molecular target: T1, Human EphA2 (Ecto), C-terminal polyHis; test: FP competition vs Reference Compound C (Study 2)
Mouse EphA2 (Ecto) [4] = molecular target: T2, Mouse EphA2 (Ecto); test: FP competition vs Reference Compound C (Study 2)

Binder | Ki [1] [nM] | Ki (Mouse EphA2 (Ecto) [2]) [nM] | other results
ACPLVNPLCLMTGWSCA (linker 2-9-16 via TATA; not fully specified (C-terminus)) [Compound 61] | 242 |  | 
CPLVNPLCLHPGWTCLHG (N-terminal Ac; C-terminal -Sar6-(D-K); TATA scaffold on the 3 Cys, also called Compound 77) [BCY6019] | 5.41 | 48.2 | 
ACPLVNPLCLLDGWTCA (linker 2-9-16 via TATA; not fully specified (C-terminus)) [Compound 58] | 38.4 |  | 
AXDCPLVNPLCLHPGWTC (not fully specified; N-terminal (β-Ala)-Sar10 spacer precedes SEQ ID NO: 11; HArg (homoarginine) at residue 2 of SEQ ID NO: 11; three Cys cyclised on the TATA scaffold; DM1-SS- (DM1-SPDB) on the N-terminal amine) [BCY6031] |  |  | Kd (Human EphA2): 1.99 nM; t1/2 (Human EphA2): 2.3 min
AXDCPLVNPLCLHPGWTC (not fully specified; N-terminal (β-Ala)-Sar10 spacer precedes SEQ ID NO: 11; HArg (homoarginine) at residue 2 of SEQ ID NO: 11; three Cys cyclised on the TATA scaffold; DM1-SS-(Me)- (DM1-SPP) on the N-terminal amine) [BCY6032] |  |  | Kd (Human EphA2): 2.1 nM; t1/2 (Human EphA2): 2.2 min
AXDCPLVNPLCLHPGWTC (N-terminal (β-Ala)-Sar10; HArg; TATA scaffold on the 3 Cys, also called Compound 67) [BCY6014] | 8.51 | 61.7 | 
ACPLVNPLCMMGGWKCA (linker 2-9-16 via TATA; not fully specified (C-terminus)) [Compound 62] | 67.1 |  | 
AXDCPLVNPLCLHPGWTC (not fully specified; as BCY6014 (N-terminal (β-Ala)-Sar10; HArg; TATA scaffold on the 3 Cys) + Non-cleavable (MMAE), Bicycle drug conjugate (BDC)) [BCY6063] |  |  | Ki [3]: 7.8 nM; Ki (Mouse EphA2 (Ecto) [4]): 66.8 nM
Ac-ARDCPLVNPLCLHPGWTCA (linker 4-11-18 via TATA; not fully specified (C-terminus); printed as Ac-ARDCPLVNPLCLHPGWTCA-Sar6-(D-K)) [Compound 68] | 19.3 | 166 | 
RPACPLVNPLCLHPGWTCA (linker 4-11-18 via TATA; not fully specified (C-terminus)) [Compound 70] | 10.1 |  | 
RPPCPLVNPLCLHPGWTCA (linker 4-11-18 via TATA; not fully specified (C-terminus)) [Compound 71] | 11.1 |  | 
ACPLVNPLCLMPGWGCA (linker 2-9-16 via TATA; not fully specified (C-terminus)) [Compound 59] | 114 |  | 
Ac-CPLVNPLCLHPGWTCLHG (linker 1-8-15 via TATA; not fully specified (C-terminus); printed as Ac-CPLVNPLCLHPGWTCLHG) [Compound 74] | 1.76 |  | 
Ac-CPLVNPLCLHPGWTCLHG (linker 1-8-15 via TATA; not fully specified (C-terminus); also: DM1-SS-(Me)- conjugated, site not given here, Bicycle drug conjugate (BDC)) [BCY6036] |  |  | Ki [3]: 18.6 nM
Ac-CPLVNPLCLHPGWTCLHG (linker 1-8-15 via TATA; not fully specified (C-terminus); also: TrpCit-MMAE conjugated, site not given here, Bicycle drug conjugate (BDC)) [BCY6038] |  |  | Ki [3]: 2.8 nM
ACPLVNPLCLHPG[2Nal]TCLHG (linker 2-9-16 via TATA; not fully specified (C-terminus); printed as ACPLVNPLCLHPG(2Nal)TCLHG) [Compound 79] | 162 |  | 
AXDCPLVNPLCLHPGWTCA (not fully specified; N-terminal Ac; HArg; C-terminal -Sar6-(D-K); TATA scaffold on the 3 Cys) [Compound 69] | 17.5 | 164 | 

Binder | Ki [1] [nM] | Ki (Mouse EphA2 (Ecto) [2]) [nM] | other results
ACPLVNPLCMIGNWTCA (linker 2-9-16 via TATA; not fully specified (C-terminus)) [Compound 60] | 96.2 |  | 
ACPLVNPLCLHPGWSCRGQ (linker 2-9-16 via TATA, Bicyclic peptide on a TATA scaffold, no toxin; Made on Rink amide resin; also called Compound 87; Bicycle Compound Number 87) |  |  | t1/2 (Human EphA2): 11.3 min
ACPLVNPLCLYGSWKCA (linker 2-9-16 via TATA; not fully specified (C-terminus)) [Compound 63] | 59 |  | 
AXDCPLVNPLCLHPGWTC (not fully specified; as BCY6014 (N-terminal (β-Ala)-Sar10; HArg; TATA scaffold on the 3 Cys) + DM1-SS-(Me2)-, Bicycle drug conjugate (BDC)) [BCY6055] |  |  | Ki [3]: 15.8 nM
ACPLVNPLCLHPGWSCXGQ (not fully specified; N-terminal (β-Ala)-Sar10; HArg; TATA scaffold on the 3 Cys) [Compound 90] | 5.41 | 47 | 
AXDCPLVNPLCLHPGWTC (not fully specified; as BCY6014 (N-terminal (β-Ala)-Sar10; HArg; TATA scaffold on the 3 Cys) + TrpCit-MMAE, Bicycle drug conjugate (BDC)) |  |  | Ki [3]: 5.9 nM; Ki (Mouse EphA2 (Ecto) [4]): 35.9 nM
Ac-CPLVNPLCLHPGWTCLHG (linker 1-8-15 via TATA; not fully specified (C-terminus); also: ValCit-MMAE conjugated, site not given here, Bicycle drug conjugate (BDC)) [BCY6037] |  |  | Ki [3]: 7.3 nM
CPLVNPLCLHPGWSCXGQ (not fully specified; N-terminal Ac; HArg; C-terminal -Sar6-(D-K); TATA scaffold on the 3 Cys) [Compound 92] | 10.6 | 75.3 | 
CPLVNPLCLHPGWSCRGQ (N-terminal Ac; C-terminal -Sar6-(D-K); TATA scaffold on the 3 Cys, also called Compound 91) [BCY6042] | 5.98 | 49.9 | 
CPLVNPLCLHPGWTCLXG (not fully specified; N-terminal Ac; D-His; C-terminal -Sar6-(D-K); TATA scaffold on the 3 Cys) [Compound 78] | 15.6 | 115 | 
AXDCPLVNPLCLHPGWTC (not fully specified; N-terminal (β-Ala)-Sar10 spacer precedes SEQ ID NO: 11; HArg (homoarginine) at residue 2 of SEQ ID NO: 11; three Cys cyclised on the TATA scaffold; TrpCit-MMAE (MMAE-PABC-Cit-Trp-glutarate) on the N-terminal amine) |  |  | Kd (Human EphA2): 1.64 nM; t1/2 (Human EphA2): 3.2 min
ACPLVNPLCLHPGWTCLHG (N-terminal (β-Ala)-Sar10; TATA scaffold on the 3 Cys) [Compound 75] | 2.48 |  | 
ACPLVNPLCLHPGWSCRGQ (linker 2-9-16 via TATA, also called Compound 87) | 2.57 | 18.6 | 
ARDCPLVNPLCLHPGWTCA (linker 4-11-18 via TATA; not fully specified (C-terminus)) [Compound 65] | 6.05 | 39.1 | 
ACPLVNPLCLHPGWTCLXG (not fully specified; N-terminal (β-Ala)-Sar10; D-His; TATA scaffold on the 3 Cys) [Compound 76] | 10 | 75.2 | 
Ac-CPLVNPLCLHPGWTCLHG (linker 1-8-15 via TATA; not fully specified (C-terminus); also: DM1-SS- conjugated, site not given here, Bicycle drug conjugate (BDC)) [BCY6035] |  |  | Ki [3]: 15.2 nM
[βAla][Sar][Sar][Sar][Sar][Sar][Sar][Sar][Sar][Sar][Sar]ACPLVNPLCLHPGWSCRGQ (linker 13-20-27 via TATA; not fully specified (C-terminus); printed as (β-Ala)-Sar10-ACPLVNPLCLHPGWSCRGQ) [Compound 89] | 2.86 | 29.6 | 
